Kd data for two molecules are collected here from publication PMC5633906, “Introducing site-specific cysteines into nanobodies for mercury labelling allows de novo phasing of their crystal structures” (Acta Crystallographica. Section D, Structural Biology, 2017).

This test deals with T1, human complement component C5 (Homo sapiens, UniProt P01031).
T1 construct: complement C5 beta chain, human, cut product of the C5 precursor; complement C5 alpha chain, human, cut product of the C5 precursor; also called Human C5; C5 antigen; source: purified as described previously (Laursen et al., 2010; Schatz-Jakobsen et al., 2016)
In words: BLI; Octet RED; histidine-tagged Nbs immobilised on Anti-Penta-HIS biosensors at 2.5 µg/ml; C5 62.5 to 2000 nM in PBS; association 700 s, dissociation 1800 s; global fit. Particulars: both partners purified.

B1: native Nb36 nanobody (VHH)
VHH: QVQLVESGGGLVQAGGSLRLSCVVSGSAVSDYAMGWYRQAPGKQRELVAAIYNSGRTNYVDSVKGRFTISKDNAKKTVYLQMNSLKPEDTADYFCNLLGATTMSNAVWGQGTQVTVSS
notes: Selected by phage display from a llama immunised with human C5; construct in pET-22b(+) with an N-terminal PelB signal for secretion into the periplasm; also called nonmodified Nb36; Nb36-Nat1; source: E. coli LOBSTR, purified (Ni Sepharose, Superdex 75); not shown: 6xHis, C-terminal, kept
Turning to B1, the Kd (in general, the constant that tells how readily two partners part at equilibrium) was about 86 nM.

B2: PCMB-labelled Nb36-C85 (VHH)
VHH: QVQLVESGGGLVQAGGSLRLSCVVSGSAVSDYAMGWYRQAPGKQRELVAAIYNSGRTNYVDSVKGRFTISKDNAKKTVYLQMNCLKPEDTADYFCNLLGATTMSNAVWGQGTQVTVSS
notes: as the VHH of m1 with Ser85Cys (position 82b in the Kabat nomenclature); Construct in pET-22b(+) with an N-terminal PelB signal for secretion into the periplasm; In the crystals the benzoate moiety of PCMB was not seen; also called Nb36 Ser85Cys labelled with PCMB; Hg-labelled Nb36-C85; source: E. coli LOBSTR, purified (Ni Sepharose, Superdex 75), labelled with PCMB; not shown: 6xHis, C-terminal, …
As to B2, the Kd was about 37 nM.
